Experimental findings from publication PMC10844294, “A monoclonal antibody targeting a large surface of the receptor binding motif shows pan-neutralizing SARS-CoV-2 activity” (Nature Communications, 2024) are described below.

The target in the test is T1, B.1.1.529 (BA.1) S1 + S2 trimer-His Recombinant Protein (SARS-CoV-2 Omicron BA.1 (B.1.1.529), strain).
T1 construct: also called Omicron BA.1 trimeric spike; BA.1 spike
In words: cryo-EM structure. To be noted: both partners purified.

Usually stoichiometry N stands for a count of units in the complex or per binding partner.

B1: 17T2 Fab fragment (Fab, V domains shown)
VH: QVQLVQSGPEVKKPGTSVKVSCKAPVFTFSISAVQWVRQARGQRLEWIGWIVVGSGNTNYAQNFQERVTITTDMSTGTVYMELSGLRSEDTAMYYCAAPYCNRTTCYDGFDLWGQGTMVTVSS
VL: EIVLTQSPGTLSLSPGERATLSCRASQSISSNYLAWYQQKPGQAPRLLIYGASSRATGIPDRFSGSGSGTDFTLSINRLEPEDFAMYYCQHYGGLSRWTFGQGTKVEIK
notes: also called Fab 17T2
In the case of B1, the “stoichiometry N” value worked out at 3 Fab per spike trimer.
